# Key:
# [1] = test system: EFT-400 tissues; experiment: Gene expression by quantitative PCR custom array in EFT-400 tissues with or without UV irradiation; conditions: for AVG Ct ACTB (housekeeping gene) / AVG Ct AQP3 / AVG Ct BCL2L1 / AVG Ct COL1A1 / AVG Ct COL4A2 / AVG Ct COL5A1 / AVG Ct COL6A1 / AVG Ct COL6A2 / AVG Ct COL7A1 / AVG Ct COL8A1 / AVG Ct COL11A1 / AVG Ct COL12A1 / AVG Ct COL14A1 / AVG Ct COL15A1 / AVG Ct COL16A1 / AVG Ct DSG1 / AVG Ct ERCC1 / AVG Ct FN1 / AVG Ct GAPDH (housekeeping gene) / AVG Ct GDF15 / AVG Ct GSTM3 / AVG Ct HSPA8 / AVG Ct IL1A / AVG Ct IL1B / AVG Ct IL8 / AVG Ct KAL1 / AVG Ct KRT16 / AVG Ct LAMA1 / AVG Ct LAMA2 / AVG Ct LAMA3 / AVG Ct LAMA5 / AVG Ct LAMB1 / AVG Ct LAMB3 / AVG Ct LAMC1 / AVG Ct MMP1 / AVG Ct MMP2 / AVG Ct MT2A / AVG Ct PCNA / AVG Ct RPL13A (housekeeping gene) / AVG Ct SIRT1 / AVG Ct TGFBI / AVG Ct THBS3 / AVG Ct TNC / AVG Ct VTN: UVB + UVA
# Description: EpiDerm-FT™ (EFT-400) tissues were produced and packaged in the MatTek Corporation GMP tissue culture production laboratories following standard procedures. Packaged tissues were stored at 4° C. overnight and then re-equilibrated in EFT-400-ASY medium overnight prior to the start of experiments. The sample size was n=3 for each treatment group in the gene expression experiments; and n=6 (two independent experiments of n=3) for the sunburned cell counts.
# Total RNA was isolated from the EFT-400 tissues (RNAqueous kit, Ambion) (n=3) and utilized for gene expression analysis by quantitative PCR on an SABioscience custom array containing 42 Human Extracellular Matrix (ECM) and Adhesion Molecules RT^2 Profiler™ PCR Array, stress and toxicity genes whose expression, based on MatTek data, are known to be dramatically altered by UV-protective compounds on UV damaged skin. […] Further, there were three internal control spots on the array that corresponded to human genomic DNA contamination (HGDC), positive PCR control (PPC), and reverse transcription control (RTC).
# [2] = test system: EFT-400 tissues; experiment: Sunburned cell counts in UV-irradiated EpiDerm-FT (EFT-400) skin model tissues, H&E histology; type: cell-based, human; conditions: for sunburned cell formation: 200 mJ/cm2 UVB/29.94 mW/cm2 UVA, 24 hour post irradiation
# Description: Packaged tissues were stored at 4° C. overnight and then re-equilibrated in EFT-400-ASY medium overnight prior to the start of experiments. The sample size was n=3 for each treatment group in the gene expression experiments; and n=6 (two independent experiments of n=3) for the sunburned cell counts.
# Treated and untreated tissues were exposed to UV irradiation with 200 mJ/cm^2UVB/29.94 mW/cm^2UVA simulated solar UV light (Honle-500 solar lamp).
# At the conclusion of the 24 hour post-irradiation period, EFT-400 tissues were fixed in 10% formalin for 2 hours at room temperature (two independent experiments with n=3). Formalin fixed tissues were embedded in paraffin and 6 micron slices were stained with haematoxylin and eosin (H&E).
molecule,measurement,setting,value
"Nell 1: Full-length human recombinant NELL1 protein (isoform 1, SEQ ID NO: 2), expressed in a wheat germ cell-free translation system, obtained from Abnova (protein, listed as Homo sapiens) MPMDLILVVWFCVCTARTVVGFGMDPDLQMDIVTELDLVNTTLGVAQVSGMHNASKAFLFQDIEREIHAAPHVSEKLIQLFRNKSEFTILATVQQKPSTSGVILSIRELEHSYFELESSGLRDEIRYHYIHNGKPRTEALPYRMADGQWHKVALSVSASHLLLHVDCNRIYERVIDPPDTNLPPGINLWLGQRNQKHGLFKGIIQDGKIIFMPNGYITQCPNLNHTCPTCSDFLSLVQGIMDLQELLAKMTAKLNYAETRLSQLENCHCEKTCQVSGLLYRDQDSWVDGDHCRNCTCKSGAVECRRMSCPPLNCSPDSLPVHIAGQCCKVCRPKCIYGGKVLAEGQRILTKSCRECRGGVLVKITEMCPPLNCSEKDHILPENQCCRVCRGHNFCAEGPKCGENSECKNWNTKATCECKSGYISVQGDSAYCEDIDECAAKMHYCHANTVCVNLPGLYRCDCVPGYIRVDDFSCTEHDECGSGQHNCDENAICTNTVQGHSCTCKPGYVGNGTICRAFCEEGCRYGGTCVAPNKCVCPSGFTGSHCEKDIDECSEGIIECHNHSRCVNLPGWYHCECRSGFHDDGTYSLSGESCIDIDECALRTHTCWNDSACINLAGGFDCLCPSGPSCSGDCPHEGGLKHNGQVWTLKEDRCSVCSCKDGKIFCRRTACDCQNPSADLFCCPECDTRVTSQCLDQNGHKLYRSGDNWTHSCQQCRCLEGEVDCWPLTCPNLSCEYTAILEGECCPRCVSDPCLADNITYDIRKTCLDSYGVSRLSGSVWTMAGSPCTTCKCKNGRVCCSVDFECLQNN",significance of further increase of AQP3 RNA after UV exposure,"[1]; UV-irradiated, 100 ng/ml",highly significant
same,UV-elevated levels of AQP3,"[1]; UV-irradiated, 150 ng/ml",did not have the same effect
same,UV-induced increase in IL-1β RNA level,"[1]; UV-irradiated, 150 ng/ml",did not
same,UV-induced increase in IL-8 RNA level,"[1]; UV-irradiated, 150 ng/ml",did not
same,UV-induced increase in MMP-1 RNA level,"[1]; UV-irradiated, 150 ng/ml",did not
same,AVG Ct ACTB (housekeeping gene),[1]; 100 ng/ml Nell 1,17.67
same,AVG Ct AQP3,[1]; 100 ng/ml Nell 1,21.13
same,AVG Ct BCL2L1,[1]; 100 ng/ml Nell 1,23.22
same,AVG Ct COL1A1,[1]; 100 ng/ml Nell 1,18.36
same,AVG Ct COL4A2,[1]; 100 ng/ml Nell 1,21.55
same,AVG Ct COL5A1,[1]; 100 ng/ml Nell 1,22.98
same,AVG Ct COL6A1,[1]; 100 ng/ml Nell 1,19.15
same,AVG Ct COL6A2,[1]; 100 ng/ml Nell 1,19.19
same,AVG Ct COL7A1,[1]; 100 ng/ml Nell 1,24.38
same,AVG Ct COL8A1,[1]; 100 ng/ml Nell 1,26.96
same,AVG Ct COL11A1,[1]; 100 ng/ml Nell 1,26.86
same,AVG Ct COL12A1,[1]; 100 ng/ml Nell 1,23.95
same,AVG Ct COL14A1,[1]; 100 ng/ml Nell 1,25.64
same,AVG Ct COL15A1,[1]; 100 ng/ml Nell 1,25.01
same,AVG Ct COL16A1,[1]; 100 ng/ml Nell 1,23.42
same,AVG Ct DSG1,[1]; 100 ng/ml Nell 1,20.06
same,AVG Ct ERCC1,[1]; 100 ng/ml Nell 1,23.26
same,AVG Ct FN1,[1]; 100 ng/ml Nell 1,19.79
same,AVG Ct GAPDH (housekeeping gene),[1]; 100 ng/ml Nell 1,18.15
same,AVG Ct GDF15,[1]; 100 ng/ml Nell 1,22.21
same,AVG Ct GSTM3,[1]; 100 ng/ml Nell 1,29.13
same,AVG Ct HSPA8,[1]; 100 ng/ml Nell 1,19.74
same,AVG Ct IL1A,[1]; 100 ng/ml Nell 1,24.03
same,AVG Ct IL1B,[1]; 100 ng/ml Nell 1,26.48
same,AVG Ct IL8,[1]; 100 ng/ml Nell 1,17.72
same,AVG Ct KAL1,[1]; 100 ng/ml Nell 1,31.65
same,AVG Ct KRT16,[1]; 100 ng/ml Nell 1,16.35
same,AVG Ct LAMA1,[1]; 100 ng/ml Nell 1,28.16
same,AVG Ct LAMA2,[1]; 100 ng/ml Nell 1,25.03
same,AVG Ct LAMA3,[1]; 100 ng/ml Nell 1,22.41
same,AVG Ct LAMA5,[1]; 100 ng/ml Nell 1,26.3
same,AVG Ct LAMB1,[1]; 100 ng/ml Nell 1,22.34
same,AVG Ct LAMB3,[1]; 100 ng/ml Nell 1,23.78
same,AVG Ct LAMC1,[1]; 100 ng/ml Nell 1,22.72
same,AVG Ct MMP1,[1]; 100 ng/ml Nell 1,17.91
same,AVG Ct MMP2,[1]; 100 ng/ml Nell 1,18.77
same,AVG Ct MT2A,[1]; 100 ng/ml Nell 1,16.81
same,AVG Ct PCNA,[1]; 100 ng/ml Nell 1,23.31
same,AVG Ct RPL13A (housekeeping gene),[1]; 100 ng/ml Nell 1,20.55
same,AVG Ct SIRT1,[1]; 100 ng/ml Nell 1,26
same,AVG Ct TGFBI,[1]; 100 ng/ml Nell 1,21.97
same,AVG Ct THBS3,[1]; 100 ng/ml Nell 1,28.28
same,AVG Ct TNC,[1]; 100 ng/ml Nell 1,20.22
same,AVG Ct VTN,[1]; 100 ng/ml Nell 1,31.83
same,AVG Ct ACTB (housekeeping gene),[1]; 150 ng/ml Nell 1,17.99
same,AVG Ct AQP3,[1]; 150 ng/ml Nell 1,21.71
same,AVG Ct BCL2L1,[1]; 150 ng/ml Nell 1,23.45
same,AVG Ct COL1A1,[1]; 150 ng/ml Nell 1,18.78
same,AVG Ct COL4A2,[1]; 150 ng/ml Nell 1,21.59
same,AVG Ct COL5A1,[1]; 150 ng/ml Nell 1,23.33
same,AVG Ct COL6A1,[1]; 150 ng/ml Nell 1,19.34
same,AVG Ct COL6A2,[1]; 150 ng/ml Nell 1,19.56
same,AVG Ct COL7A1,[1]; 150 ng/ml Nell 1,25.28
same,AVG Ct COL8A1,[1]; 150 ng/ml Nell 1,27.46
same,AVG Ct COL11A1,[1]; 150 ng/ml Nell 1,27.23
same,AVG Ct COL12A1,[1]; 150 ng/ml Nell 1,24.22
same,AVG Ct COL14A1,[1]; 150 ng/ml Nell 1,25.86
same,AVG Ct COL15A1,[1]; 150 ng/ml Nell 1,25.2
same,AVG Ct COL16A1,[1]; 150 ng/ml Nell 1,23.71
same,AVG Ct DSG1,[1]; 150 ng/ml Nell 1,20.21
same,AVG Ct ERCC1,[1]; 150 ng/ml Nell 1,23.41
same,AVG Ct FN1,[1]; 150 ng/ml Nell 1,20.13
same,AVG Ct GAPDH (housekeeping gene),[1]; 150 ng/ml Nell 1,18.08
same,AVG Ct GDF15,[1]; 150 ng/ml Nell 1,21.87
same,AVG Ct GSTM3,[1]; 150 ng/ml Nell 1,29.32
same,AVG Ct HSPA8,[1]; 150 ng/ml Nell 1,20.04
same,AVG Ct IL1A,[1]; 150 ng/ml Nell 1,23.99
same,AVG Ct IL1B,[1]; 150 ng/ml Nell 1,25.98
same,AVG Ct IL8,[1]; 150 ng/ml Nell 1,17.08
same,AVG Ct KAL1,[1]; 150 ng/ml Nell 1,32.24
same,AVG Ct KRT16,[1]; 150 ng/ml Nell 1,16.47
same,AVG Ct LAMA1,[1]; 150 ng/ml Nell 1,28.02
same,AVG Ct LAMA2,[1]; 150 ng/ml Nell 1,25.17
same,AVG Ct LAMA3,[1]; 150 ng/ml Nell 1,22.96
same,AVG Ct LAMA5,[1]; 150 ng/ml Nell 1,27.06
same,AVG Ct LAMB1,[1]; 150 ng/ml Nell 1,22.48
same,AVG Ct LAMB3,[1]; 150 ng/ml Nell 1,24.32
same,AVG Ct LAMC1,[1]; 150 ng/ml Nell 1,22.88
same,AVG Ct MMP1,[1]; 150 ng/ml Nell 1,17.75
same,AVG Ct MMP2,[1]; 150 ng/ml Nell 1,18.67
same,AVG Ct MT2A,[1]; 150 ng/ml Nell 1,16.56
same,AVG Ct PCNA,[1]; 150 ng/ml Nell 1,23.58
same,AVG Ct RPL13A (housekeeping gene),[1]; 150 ng/ml Nell 1,20.64
same,AVG Ct SIRT1,[1]; 150 ng/ml Nell 1,26.02
same,AVG Ct TGFBI,[1]; 150 ng/ml Nell 1,21.91
same,AVG Ct THBS3,[1]; 150 ng/ml Nell 1,28.7
same,AVG Ct TNC,[1]; 150 ng/ml Nell 1,20.2
same,AVG Ct VTN,[1]; 150 ng/ml Nell 1,32.41
same,gene expression in the absence of UV irradiation,[1]; no UV,some decreases in gene expression
same,sunburned cell formation,[2]; 100 ng/ml,decrease in sunburned cell formation
same,sunburned cell formation,[2]; 150 ng/ml,did not decrease sunburned cell formation to the same extent as 100 ng/ml NELL1
same,number of sunburned cells as compared to UV-only controls,"[2]; pre-treatment 30 minutes prior to UV, continued 24 hours post-irradiation",statistically significant reduction in the number of sunburned cells

# Source: US20110236325A1, “METHODS TO TREAT OR PREVENT A SKIN CONDITION USING A NELL1 PEPTIDE” (NellOne Therapeutics, Inc., priority 2010, published 2011)
